This note sets out measurements from patent publication US20230047413A1.

In test [1] the target is tau seeds from cryopreserved human AD brain tissue (human) (UniProt P10636). In words: cell-based or functional assay.
In test [2] the target is tau seeds from GFP-tauP301L-overexpressing HEK cells (UniProt P10636). Put plainly: cell-based or functional assay.
For test [3], the target named is tau seeds from spinal cords of P301S transgenic animals (human) (UniProt P10636). In words: cell-based or functional assay.
Test [4] deals with PHF-tau (paired helical filament tau isolated from Alzheimer's disease brain) (human) (UniProt P10636). Put plainly: SPR ProteOn, PHF-tau.
For test [5], the target named is recombinant human wild-type tau (Example 1) (human) (UniProt P10636). Put plainly: SPR Biacore, recombinant tau.
In test [6] the target is PHF-tau (paired helical filament tau isolated from Alzheimer's disease brain) (human) (UniProt P10636). In words: SPR ProteOn, PHF-tau capture-coupled via HT7, bivalent model.

Chain of recombinant human wild-type tau (Example 1) (human) (P10636 other isoform, or with tags, fused parts or gaps limits assumed): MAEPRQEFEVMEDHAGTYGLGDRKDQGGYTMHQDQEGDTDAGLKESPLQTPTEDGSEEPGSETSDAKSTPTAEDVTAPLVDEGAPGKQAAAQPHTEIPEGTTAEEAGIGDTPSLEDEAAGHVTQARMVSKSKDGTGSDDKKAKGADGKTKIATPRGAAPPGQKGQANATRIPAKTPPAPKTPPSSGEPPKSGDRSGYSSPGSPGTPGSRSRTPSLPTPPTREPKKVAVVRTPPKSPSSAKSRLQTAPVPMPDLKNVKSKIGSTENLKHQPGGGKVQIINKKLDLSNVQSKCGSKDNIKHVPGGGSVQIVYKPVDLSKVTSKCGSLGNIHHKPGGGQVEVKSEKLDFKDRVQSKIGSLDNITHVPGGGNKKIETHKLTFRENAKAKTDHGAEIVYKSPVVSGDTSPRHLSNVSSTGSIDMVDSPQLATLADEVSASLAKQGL
Chain of tau seeds from spinal cords of P301S transgenic animals (human) (P10636 other isoform, or with tags, fused parts or gaps P301S P301S): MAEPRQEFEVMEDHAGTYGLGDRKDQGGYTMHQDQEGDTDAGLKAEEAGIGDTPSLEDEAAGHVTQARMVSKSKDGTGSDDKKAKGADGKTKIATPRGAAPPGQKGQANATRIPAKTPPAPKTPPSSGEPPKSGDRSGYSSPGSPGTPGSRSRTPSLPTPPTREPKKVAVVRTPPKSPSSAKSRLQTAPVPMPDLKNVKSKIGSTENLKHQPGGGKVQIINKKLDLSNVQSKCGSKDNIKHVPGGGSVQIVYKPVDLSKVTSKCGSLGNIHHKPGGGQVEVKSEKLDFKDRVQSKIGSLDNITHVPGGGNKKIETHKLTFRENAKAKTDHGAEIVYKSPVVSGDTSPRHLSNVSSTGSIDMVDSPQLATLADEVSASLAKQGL
Chain of PHF-tau (paired helical filament tau isolated from Alzheimer's disease brain) (human) (P10636 other isoform, or with tags, fused parts or gaps limits assumed): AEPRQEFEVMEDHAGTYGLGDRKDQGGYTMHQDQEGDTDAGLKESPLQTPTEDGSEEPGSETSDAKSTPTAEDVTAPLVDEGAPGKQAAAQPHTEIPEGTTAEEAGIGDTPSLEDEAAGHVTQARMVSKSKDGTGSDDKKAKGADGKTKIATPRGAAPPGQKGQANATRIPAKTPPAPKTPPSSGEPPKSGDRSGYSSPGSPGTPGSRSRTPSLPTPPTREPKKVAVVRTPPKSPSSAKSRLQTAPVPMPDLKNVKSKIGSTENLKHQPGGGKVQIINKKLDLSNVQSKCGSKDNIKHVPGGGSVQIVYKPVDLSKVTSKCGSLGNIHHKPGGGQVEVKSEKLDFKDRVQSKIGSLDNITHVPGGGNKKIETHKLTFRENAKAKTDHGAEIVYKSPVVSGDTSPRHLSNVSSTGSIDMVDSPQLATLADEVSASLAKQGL

In test [1], AT8 mAb (hyb) (antibody) displayed an FRET/human AD brain homogenate immunodepletion assay, 300 nM antibody (% of negative control) of 80.7. Also, in test [2], the inhibition of K18 aggregate induction, BRET/GFP-tauP301L co-incubation assay, 300 nM antibody (% of negative control) came out at 10.5. In test [3], the FRET/P301S spinal cord immunodepletion assay, 300 nM antibody (% of negative control) worked out at 96.7 and the inhibition of K18 aggregate induction, FRET/P301S spinal cord co-incubation assay, 300 nM antibody (% of negative control) was 26.4. In test [4], the Kd worked out at 0.092 nM, the koff was determined as 0.000211 s⁻¹ and the kon was found to be 2.3e+06 M⁻¹ s⁻¹.

In the case of AT8 Fab, in test [4], the Kd came to 25.8 nM, the koff came out at 0.023 s⁻¹ and the kon was 889000 M⁻¹ s⁻¹.

Regarding HT7 (antibody), in test [5], the Kd came to 3.05 nM, the koff was determined as 0.0118 s⁻¹ and the kon was determined as 3.86e+06 M⁻¹ s⁻¹. Moreover, in test [1], the FRET/human AD brain homogenate immunodepletion assay, 300 nM antibody (% of negative control) was 83. Also, the inhibition of K18 aggregate induction, BRET/GFP-tauP301L co-incubation assay, 166.67 nM antibody (% of negative control) in test [2] worked out at 65.4. Besides, in test [3], the FRET/P301S spinal cord immunodepletion assay, 300 nM antibody (% of negative control) is 99.2 and the inhibition of K18 aggregate induction, FRET/P301S spinal cord co-incubation assay, 89.99 nM antibody (% of negative control) is 73.5. Besides, in test [4], the Kd was 0.131 nM, the koff worked out at 9.26e-05 s⁻¹ and the kon was 706000 M⁻¹ s⁻¹. In test [6], this substance displayed a Kd of 0.193 nM, a dissociation rate constant (koff) of 0.00011 s⁻¹ and an on-rate constant (kon) of 569000 M⁻¹ s⁻¹.
